The values below come from patent US20150118184A1 (Chugai, published 2015).

The labels stand for the following.
T1: LAMP5 (endogenous, on KHM-1B multiple myeloma cells and in cancer cell line lysates) (human, UniProt Q9UJQ1 30-280)
T1 construct: Endogenous LAMP5 of the cell lines; also called BAD-LAMP; C20orf103
T1 sequence: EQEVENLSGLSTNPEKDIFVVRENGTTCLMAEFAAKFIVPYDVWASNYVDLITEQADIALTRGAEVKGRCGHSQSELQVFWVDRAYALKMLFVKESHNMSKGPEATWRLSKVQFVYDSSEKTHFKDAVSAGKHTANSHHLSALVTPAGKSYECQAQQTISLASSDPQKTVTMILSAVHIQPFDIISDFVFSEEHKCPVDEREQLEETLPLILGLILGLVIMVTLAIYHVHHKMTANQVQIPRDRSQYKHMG

T2: mouse LAMP5 having a V5 tag added to the N-terminal thereof, expressed on CHO cells (mLAMP5 CHO) (mouse, UniProt Q9D387 30-280)
T2 construct: also called mouse-origined LAMP5; V5-mLAMP5
T2 sequence: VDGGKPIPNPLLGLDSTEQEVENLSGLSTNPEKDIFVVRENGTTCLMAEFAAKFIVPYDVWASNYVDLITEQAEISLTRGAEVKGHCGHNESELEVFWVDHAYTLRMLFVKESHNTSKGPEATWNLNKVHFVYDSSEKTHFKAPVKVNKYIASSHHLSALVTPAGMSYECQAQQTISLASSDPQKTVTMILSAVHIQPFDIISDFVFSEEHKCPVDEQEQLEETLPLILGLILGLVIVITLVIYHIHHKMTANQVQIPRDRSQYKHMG

B1: anti-LAMP5 monoclonal antibody D2 (antibody, mouse IgG1, V domains shown)
VH: EVKLEESGGGLVQPGGSMKLSCTASGFTFSDAWMDWVRQSPEKGLEWVAEIRGKADNHATYYAESVKGRFTISRDDSKSSVYLQMNSLRTEDTAIYYCIPYYRYAMDYWGQGTSVTVSS
VL: QIVLTQSPAIMSASPGEKVTITCTASSSVSYMHWFQQKPGTSPKLWIYATSYLASGVPTRFSGSGSGTSYSLTISRMEAEDAATYYCQQKSNYPWTFGGGTNLEIK
notes: also called clone D2; D2 antibody
B2: anti-LAMP5 monoclonal antibody D9 (antibody, V domains shown)
VH: EVKLVESGGGLVKPGGSLKLSCAASGFTFSSYAMSWVRQTPEKRLEWVASISSGGSTYYPDSVKGRFTISRDNARNILYLQMSSLRSEDTAMYYCARLITTRFAYWGQGTLVTVSA
VL: ENVLTQSPAIMSASPGEKVTMTCRASSSVSSSYLHWYQQKSGASPKLWIYSTSNLASGVPARFSGSGSGTSYSLTISSVEAEDAATYYCQQYSGYPLTFGSGTKLEIK
notes: also called clone D9; D9 antibody
B3: anti-LAMP5 monoclonal antibody D1 (antibody, mouse IgG1, V domains shown)
VH: EIQLQQSGPDLVKPGASVKVSCKASGFAFSTYNMYWVKQSHGKSLEWIGYIDPYNGDITYNQKFKGKATLTVDKSSSTAYMHLNSLTSEDSAVYYCARRDYFYAMDYWGQGTSVTVSS
VL: DIVMTQSHKFMSTSVGDRVSITCKASQGVGTAVAWYQQKPGQSPKLLIYWASTRHTGVPDRFTGSGSGTDFTLSVTNVQSEDLADYFCHQYSSYPLTFGSGTKLELK
notes: also called clone D1; D1 antibody
B4: anti-LAMP5 monoclonal antibody D10 (antibody, V domains shown)
VH: B3 VH with D10E, F27Y, S30T, T31S, D57G, T59S
VL: B3 VL with S74T, V75I, H89Q
notes: also called clone D10; D10 antibody

Positions count from the first letter of the chain named.

One experiment deals with T1, LAMP5 (endogenous, on KHM-1B multiple …). The experiment in a line: FACS on KHM-1B cells with or without IL-6 stimulation, 10 µg/mL antibody. The protocol:
(§1) Binding of the anti-LAMP5 monoclonal antibody produced in Example 2 to LAMP5 and mLAMP5 was evaluated by FACS. First, LAMP5 CHO (Example 2) or mLAMP5 CHO was suspended in FACS/PBS (PBS(−) comprising 0.2% bovine serum albumin (BSA) and 0.1% sodium azide) followed by disseminating into the wells of a 96-well round bottom plate at 5×10⁴ cells per well. After adding anti-LAMP5 monoclonal antibody to each well to a final concentration of 10, 2, 0.4, 0.08 or 0.016 μg/ml, the mixture was allowed to react for 1 hour on ice. After reacting, the cell suspensions were washed with FACS/PBS and allowed to react for 1 hour with FITC-labeled anti-mouse IgG antibody on ice. After reacting, the cells were washed with FACS/PBS and then suspended in FACS/PBS comprising 10 μg/ml of propidium iodide (Sigma-Aldrich Co. LLC.). The staining intensity of the cells was measured with a flow cytometer. Only viable cells not stained with propidium iodide were used in data analysis. As a result, clones D1, D2, D9 and D10 all bound concentration-dependently to LAMP5 (FIG. 2A). Clones D1, D2 and D10 in particular bound strongly in comparison with clone D9 (FIG. 2A). […] Clone D10 only bound weakly to mLAMP5 (FIG. 2B).
Next, LAMP5 expression was measured by FACS in KHM-1B cells (with or without IL-6 stimulation). FACS was carried out in the same manner as Example 4 using anti-LAMP5 monoclonal antibodies D1, D2, D9 and D10 and a negative reference in the form of IgG1κ (Pharmingen Inc., Cat. No. 553447) at concentrations of 10 μg/mL. As a result, LAMP5 was detected on the cell membrane of KHM-1B cells, and the expressed amount thereof was confirmed to be increased by IL-6 stimulation (FIG. 4).
B1: the binding result is recorded as “binds”. In the case of B2, the binding result is “binds”. Take B3: the binding result is recorded as “binds”. Still for that read-out and setting: the entry for B4 is “binds”.

The target of a further experiment is T2, mouse LAMP5 having a V5 tag added to …. The experiment is described as follows: FACS on mLAMP5 CHO cells, FITC anti-mouse IgG. Here is the method:
as §1
On to B2, for which the binding result is recorded as “no binding (tested: 10 µg/ml (highest concentration tested))”. As to B3, the binding result was “no binding (tested: 10 µg/ml (highest concentration tested))”.
